Where a chain is given by its changes, count along the chain named.
B1: 374_F07 (antibody, V domains shown)
VH: EVQLLESGGGLVQPGGSLRLSCAASGFTFDSYSMNWVRQAPGKGLEWVASINYNGGYTGYADSVKGRFTISRDNSKNTLYLQMNSLRAEDTAVYYCARGANWHDTHLDYWGQGTLVTVSS
VL: DIQMTQSPSSLSASVGDRVTITCRASQSILSYLNWYQQKPGKAPKLVIYAVTSLASGVPSRFSGSGSGTDFTLTISSLQPEDFATYYCQQSYESPLTFGGGTKVEIK
B2: 375_E10 (antibody, V domains shown)
VH: B1 VH with D30S, A49S, S50G, G59S, H106A
VL: B1 VL with V51A, L54R, E93D, S94N
B3: 368_F10 (antibody, V domains shown)
VH: B1 VH with D30S, S33G, S50G, G55S, G59S, G99A
VL: B1 VL with L30V, L33V, V47L, V51A, L54R, E93D, S94T
B4: 368_C09 (antibody, V domains shown)
VH: B1 VH with D30S, N35H, A49S, S50N, G99A
VL: B1 VL with S31T, L33V, V47L, V51A, E93D, S94L
B5: 376_C04 (antibody, V domains shown)
VH: B1 VH with D30S, S33G, A49S, S50N, H106A
VL: B1 VL with L33V, V47L, L54R, A55H, E93D, S94N
B6: 368_B10 (antibody, V domains shown)
VH: B1 VH with S33G, N35H, G59S, G99A, H106A
VL: B1 VL with S31T, V51A, L54R, Y92D, S94L
B7: 375_D10 (antibody, V domains shown)
VH: B1 VH with D30S, S50G, G59S, H106A
VL: B1 VL with S31T, L33V, V47L, V51A, L54R, Y92D, E93D
B8: 374_G10 (antibody, V domains shown)
VH: B1 VH with D30S, A49S, G55S, G59S
VL: B1 VL with L30V, L54R, E93D
B9: 375_G05 (antibody, V domains shown)
VH: B1 VH with D30S, S50G, G59S, H106A
VL: B1 VL with L30V, V47L, L54R, E93D
B10: 375_C04 (antibody, V domains shown)
VH: B1 VH with D30S, S31D, S50G, G59S, H106A
VL: B1 VL with S31T, V51A, L54R
B11: 370_B01 (antibody, V domains shown)
VH: B1 VH with S31D, S33G, N35H, A49S, S50G, T58K, G59S, G99A, H106A
VL: B1 VL with L33V, V47L, A50V, V51A, T52S, L54R, E93S, S94L
B12: 371_A04 (antibody, V domains shown)
VH: B1 VH with S33G, A49S, G55S, G99A, H106A
VL: B1 VL with S31T, V47L, L54R, E93D, S94T
B13: 375_E03 (antibody, V domains shown)
VH: B1 VH with D30S, S31D, S50N
VL: B1 VL with S31T, V51A, E93D, S94N
B14: 375_A08 (antibody, V domains shown)
VH: B1 VH with D30S, S50G, H106A
VL: B1 VL with L30V, S31T, V47L, V51A, L54R
B15: 374_H01 (antibody, V domains shown)
VH: B1 VH with S50G, G59S
VL: B1 VL with V51A, S94N
B16: 374_F08 (antibody, V domains shown)
VH: B1 VH with A49S, S50G, T58K, G59S, H106A
VL: B1 VL with S31T, L33V, L54R, E93D, S94T
B17: 371_A09 (antibody, V domains shown)
VH: B1 VH with D30S, S33G, A49S, S50G, T58K, G59S, G99A, H106A
VL: B1 VL with L30V, S31T, L33V, V51A, L54R, E93D
B18: 375_A12 (antibody, V domains shown)
VH: B1 VH with D30S, A49S, S50G, G55S, T58K, G59S, H106A
VL: B1 VL with L54R, S94T
B19: 375_E06 (antibody, V domains shown)
VH: B1 VH with D30S, A49S, S50G, T58K, G59S, H106A
VL: B1 VL with V51A, L54R, E93D
B20: 375_H05 (antibody, V domains shown)
VH: B1 VH with D30S, A49S, S50N, H106A
VL: B1 VL with L33V, V47L, V51A, L54R, E93D, S94T
B21: 368_B11 (antibody, V domains shown)
VH: B1 VH with S33G, N35H, A49S, S50G, T58K, G59S, G99A
VL: B1 VL with V47L, V51A, T52S, A55Q, E93D
B22: 369_H03 (antibody, V domains shown)
VH: B1 VH with D30S, N35H, G55S, T58K, G59S, G99A, H106A
VL: B1 VL with L30V, V47L, V51T, L54R, E93D, S94T
B23: 376_B03 (antibody, V domains shown)
VH: B1 VH with D30S, S50G, G55S, T58K, G59S, H106A
VL: B1 VL with L33V, L54R, A55H, E93D
B24: 375_G04 (antibody, V domains shown)
VH: B1 VH with D30S, S33G, G55S
VL: B1 VL with L30V, L33V, V47L, V51A, E93D
B25: 374_G09 (antibody, V domains shown)
VH: B1 VH with D30S, S50G, T58K
VL: B1 VL with L30V, S31R, V51A, S94L
B26: 374_G11 (antibody, V domains shown)
VH: B1 VH with D30S, S31D, A49S, S50G, G59S, H106A
VL: B1 VL with L30I, L33V, V51A, E93D
B27: 375_A07 (antibody, V domains shown)
VH: B1 VH with A49S, G55S
VL: B1 VL with S31T, V47L, V51A, L54R, E93D, S94T
B28: 369_B03 (antibody, V domains shown)
VH: B1 VH with D30S, S33G, N35H, S50G, G59S, G99A, H106A
VL: B1 VL with S31T, L33V, V51A, S94L
B29: 365_B10 (antibody, V domains shown)
VH: B1 VH with S31D, N35H, G55S, T58K, G99A, H106A
VL: B1 VL with S31R, V47L, V51A, L54R, Y92D, E93N, S94L
B30: 376_E02 (antibody, V domains shown)
VH: B1 VH with D30S, S50G, T58K, H106A
VL: B1 VL with L33V, V51A, L54R, A55H, Y92D, E93N, S94T
B31: 370_H08 (antibody, V domains shown)
VH: B1 VH with D30S, S33G, N35H, G59S, G99A
VL: B1 VL with L33V, V47L, V51A, L54R, A55H, E93S, S94L
B32: 365_B04 (antibody, V domains shown)
VH: B1 VH with D30S, S33G, N35H, G55S, G59S, G99A, H106A
VL: B1 VL with S31T, V47L, V51A, L54R, A55H, Y92D
B33: 376_E11 (antibody, V domains shown)
VH: B1 VH with D30S, A49S, S50G, G59S, H106A
VL: B1 VL with S31T, L33V, V51A, L54R, S94L
B34: 371_H02 (antibody, V domains shown)
VH: B1 VH with S31D, A49S, S50G, T58K, G59S, G99A
VL: B1 VL with L30I, V51A, S94N
B35: 368_B08 (antibody, V domains shown)
VH: B1 VH with S33G, A49S, G59S, G99A
VL: B1 VL with S31T, L33V, V51A, L54R, S94N
B36: 374_G08 (antibody, V domains shown)
VH: B1 VH with A49S, S50G, G59S, H106A
VL: B1 VL with S31T, L33V, V51A, L54R, E93D
B37: 371_D12 (antibody, V domains shown)
VH: B1 VH with S33G, A49S, S50G, T58K, G59S, G99A, H106A
VL: B1 VL with V47L, V51A, L54R, S94L
B38: 375_F02 (antibody, V domains shown)
VH: B1 VH with D30S, G55S, G59S
VL: B1 VL with V47L, V51A, L54R, E93D
B39: 368_B03 (antibody, V domains shown)
VH: B1 VH with S31D, S33G, A49S, S50G, G59S, G99A, H106A
VL: B1 VL with S31T, V51A, Q90H, S94N
B40: 368_D09 (antibody, V domains shown)
VH: B1 VH with S33G, N35H, S50G, G55S, T58K, G59S, G99A
VL: B1 VL with L30V, L33V, V47L, V51A, E93D, S94N
B41: 375_B12 (antibody, V domains shown)
VH: B1 VH with S50G, T58K, G59S, H106A
VL: B1 VL with L30V, S31T, V47L, V51A, L54R, E93D, S94T
B42: 375_F07 (antibody, V domains shown)
VH: B1 VH with D30S, S31D, A49S, S50N, H106A
VL: B1 VL with V47L, V51A, L54R, E93D
B43: 371_D07 (antibody, V domains shown)
VH: B1 VH with S31D, S33G, S50N, T58K, G99A
VL: B1 VL with S31T, V51A, L54R, S94L
B44: 374_H11 (antibody, V domains shown)
VH: B1 VH with D30S, A49S, S50G, G59S, H106A
VL: B1 VL with L30I, L33V, V51A, A55H, E93S, S94N
B45: 375_F08 (antibody, V domains shown)
VH: B1 VH with D30S, S33G, A49S, G55S, T58K, G59S
VL: B1 VL with V47L, V51A, L54R, A55H, E93D, S94N
B46: 375_D01 (antibody, V domains shown)
VH: B1 VH with D30S, A49S, S50G, H106A
VL: B1 VL with S31T, V51A, L54R, S94T
B47: 369_G10 (antibody, V domains shown)
VH: B1 VH with D30S, S33G, N35H, G59S, G99A, H106A
VL: B1 VL with V51A, L54R, E93D
B48: 374_G03 (antibody, V domains shown)
VH: B1 VH with D30S, S31D, A49S, S50G, G59S, H106A
VL: B1 VL with L30S, V51A, L54R, Y92D, E93D, S94T

The binders below were run against human Fc (human) (assay: ELISA, negative control).

optical density [OD] | Binder
0.176 | B1
0.187 | B2
0.328 | B3
0.341 | B4
0.219 | B5
0.412 | B6
0.228 | B7
0.173 | B8
0.21 | B9
0.221 | B10
0.47 | B11
0.315 | B12
0.181 | B13
0.205 | B14
0.251 | B15
0.211 | B16
0.302 | B17
0.174 | B18
0.188 | B19
0.167 | B20
0.286 | B21
0.498 | B22
0.253 | B23
0.161 | B24

optical density [OD] | Binder
0.223 | B25
0.179 | B26
0.188 | B27
0.62 | B28
0.322 | B29
0.222 | B30
0.538 | B31
0.271 | B32
0.268 | B33
0.388 | B34
0.314 | B35
0.206 | B36
0.337 | B37
0.205 | B38
0.297 | B39
0.212 | B40
0.223 | B41
0.172 | B42
0.299 | B43
0.169 | B44
0.201 | B45
0.182 | B46
0.423 | B47
0.193 | B48

Reference: patent US20210380703A1
